16 variants from the supplement of paper PMC7125110 can be followed below.

B1: glmS ribozyme (parent)
chain: AUAAAAGCGCCAGAACUACAGAAAUGUAGUUGACGAGGAGGAGGUUUAUCGAAUUUUCGGCGGAUGCCUCCAAA

Holding throughout (details): with glucosamine-6-phosphate
In data set [1] the parent is B1. Kind of data set: kcat; higher = faster cleavage; RNA array. The essentials: (§1)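 Sequenced MiSeq chips were the platform: E. coli RNA polymerase transcribed barcoded ribozyme variants on them in situ, and a hybridised Cy3 probe tracked these at 37 °C. After glucosamine-6-phosphate (40 μM to 10 mM) in HEPES/KCl/Mg(OAc)2 buffer was flowed in, tiles were imaged over ~14 h. Signals normalised to baseline and to non-cleaving reference variants were reduced to per-tile medians and fit to one- or two-exponential decays to obtain kobs. kcat and KM were derived through weighted Michaelis–Menten fits across concentrations.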

In data set [2] the parent is B1. Kind of data set: KM; higher = weaker cofactor use; RNA array. In short, it runs like this:
as §1

The variants in data set [3] derive from B1. Kind of data set: self-cleavage kobs at 40 uM GlcN6P; higher = faster cleavage; RNA array. In short, it runs like this: as §1
Data set [4] covers variants of B1. Nature of the data set: self-cleavage kobs at 160 uM GlcN6P; higher = faster cleavage; RNA array. In short, it runs like this: as §1
In data set [5] the parent is B1. Nature of the data set: self-cleavage kobs at 640 uM GlcN6P; higher = faster cleavage; RNA array. In short, it runs like this: as §1
Data set [6] covers variants of B1. Kind of data set: self-cleavage kobs at 2500 uM GlcN6P; higher = faster cleavage; RNA array. In short, it runs like this: as §1
The variants in data set [7] derive from B1. Kind of data set: self-cleavage kobs at 10000 uM GlcN6P; higher = faster cleavage; RNA array. In short, it runs like this:
as §1

± gives the standard error. For some of these results: This sample holds only a part of the variants without activity.

By kcat is commonly meant the number of substrate molecules converted per active site and unit of time at saturation. As for U47G C50U A64C, in data set [1], the kcat worked out at 1.3e-05 ± 3.4e-06 s⁻¹.
What is called KM is the concentration of substrate that gives half-maximal velocity. For the variant A53G A64G, the kcat in data set [1] is 0.0648 ± 0.023 s⁻¹. In addition, the KM in data set [2] amounted to 2430 ± 1000 µM. Also, the “self-cleavage kobs at 40 uM GlcN6P” value in data set [3] was 0.00117 ± 0.00012 s⁻¹. The “self-cleavage kobs at 160 uM GlcN6P” value in data set [4] is 0.00264 ± 0.00067 s⁻¹. In addition, the “self-cleavage kobs at 640 uM GlcN6P” value in data set [5] is 0.0149 ± 0.0022 s⁻¹. Moreover, the “self-cleavage kobs at 2500 uM GlcN6P” value in data set [6] amounted to 0.0373 ± 0.01 s⁻¹. Besides, the “self-cleavage kobs at 10000 uM GlcN6P” value in data set [7] worked out at 0.0493 ± 0.012 s⁻¹.
In the case of G32C C58G, the kcat in data set [1] amounted to 8.83e-05 ± 1.4e-05 s⁻¹. Moreover, the KM in data set [2] amounted to 2580 ± 1100 µM. The “self-cleavage kobs at 2500 uM GlcN6P” value in data set [6] was found to be 4.79e-05 ± 7.8e-06 s⁻¹. In data set [7], the “self-cleavage kobs at 10000 uM GlcN6P” value turned out to be 6.81e-05 ± 9.4e-06 s⁻¹.
Turning to A15C A53G, the kcat in data set [1] amounted to 0.0101 ± 0.0037 s⁻¹. In data set [2], the KM amounted to 3060 ± 1500 µM. Moreover, the “self-cleavage kobs at 40 uM GlcN6P” value in data set [3] turned out to be 0.000195 ± 2e-05 s⁻¹. In data set [4], the “self-cleavage kobs at 160 uM GlcN6P” value amounted to 0.000515 ± 8.7e-05 s⁻¹. Moreover, the “self-cleavage kobs at 640 uM GlcN6P” value in data set [5] was found to be 0.00139 ± 0.00015 s⁻¹. In data set [6], the “self-cleavage kobs at 2500 uM GlcN6P” value is 0.00454 ± 0.00066 s⁻¹. The “self-cleavage kobs at 10000 uM GlcN6P” value in data set [7] was determined as 0.00839 ± 0.00094 s⁻¹.
For the variant C61A C67G, the kcat in data set [1] was 2.3e-05 ± 5e-06 s⁻¹. In addition, in data set [5], the “self-cleavage kobs at 640 uM GlcN6P” value was 2.63e-05 ± 1.3e-05 s⁻¹.
For C16U G32A A33G C58U C70G, the kcat in data set [1] stood at 3.69e-05 ± 8.5e-06 s⁻¹.
In the case of A12C A23C U54G C70A, the kcat in data set [1] turned out to be 0.00013 ± 1.8e-05 s⁻¹. Moreover, the “self-cleavage kobs at 40 uM GlcN6P” value in data set [3] worked out at 8.19e-05 ± 2.8e-05 s⁻¹. In data set [5], the “self-cleavage kobs at 640 uM GlcN6P” value was determined as 0.000146 ± 2.1e-05 s⁻¹. Moreover, in data set [6], the “self-cleavage kobs at 2500 uM GlcN6P” value amounted to 0.000103 ± 1.9e-05 s⁻¹. Moreover, the “self-cleavage kobs at 10000 uM GlcN6P” value in data set [7] is 0.000154 ± 2.8e-05 s⁻¹.
With C16U U30A G40A, the kcat in data set [1] is 0.000118 ± 1.8e-05 s⁻¹. In addition, in data set [2], the KM is 1030 ± 380 µM. The “self-cleavage kobs at 40 uM GlcN6P” value in data set [3] was less than 1e-05 s⁻¹. Also, the “self-cleavage kobs at 640 uM GlcN6P” value in data set [5] was determined as 4.8e-05 ± 2e-05 s⁻¹. The “self-cleavage kobs at 2500 uM GlcN6P” value in data set [6] came out at 8.29e-05 ± 2.2e-05 s⁻¹.
For the variant U31G G38U, the kcat in data set [1] is less than 1e-05 s⁻¹.
On to A14U U47C, for which the kcat in data set [1] turned out to be 0.000442 ± 6.2e-05 s⁻¹. In addition, the KM in data set [2] was 1430 ± 360 µM. Besides, the “self-cleavage kobs at 160 uM GlcN6P” value in data set [4] stood at 4.9e-05 ± 8.6e-06 s⁻¹. Besides, in data set [5], the “self-cleavage kobs at 640 uM GlcN6P” value worked out at 0.000138 ± 1.3e-05 s⁻¹. For the same variant, the “self-cleavage kobs at 2500 uM GlcN6P” value in data set [6] was 0.000238 ± 3.2e-05 s⁻¹. Further, the “self-cleavage kobs at 10000 uM GlcN6P” value in data set [7] stood at 0.000442 ± 5.2e-05 s⁻¹.
Regarding U45G A52U, the kcat in data set [1] was determined as 0.000421 ± 0.0001 s⁻¹. Besides, the “self-cleavage kobs at 40 uM GlcN6P” value in data set [3] is less than 1e-05 s⁻¹. Further, in data set [4], the “self-cleavage kobs at 160 uM GlcN6P” value was less than 1e-05 s⁻¹. For the same variant, in data set [6], the “self-cleavage kobs at 2500 uM GlcN6P” value is 7.57e-05 ± 2e-05 s⁻¹. For the same variant, the “self-cleavage kobs at 10000 uM GlcN6P” value in data set [7] was found to be 0.000189 ± 3e-05 s⁻¹.
For A12U A53C, in data set [1], the kcat worked out at 0.0145 ± 0.006 s⁻¹. Further, in data set [3], the “self-cleavage kobs at 40 uM GlcN6P” value stood at 0.000569 ± 7.4e-05 s⁻¹. Also, in data set [5], the “self-cleavage kobs at 640 uM GlcN6P” value came to 0.0051 ± 0.0014 s⁻¹. For the same variant, in data set [6], the “self-cleavage kobs at 2500 uM GlcN6P” value came out at 0.00439 ± 0.0022 s⁻¹. Besides, the “self-cleavage kobs at 10000 uM GlcN6P” value in data set [7] was 0.0183 ± 0.0027 s⁻¹.
For A15G C67G, the kcat in data set [1] stood at 0.00126 ± 0.0001 s⁻¹. The KM in data set [2] worked out at 2600 ± 330 µM. The “self-cleavage kobs at 160 uM GlcN6P” value in data set [4] stood at 7.63e-05 ± 1.2e-05 s⁻¹. The “self-cleavage kobs at 640 uM GlcN6P” value in data set [5] is 0.000243 ± 2.4e-05 s⁻¹. The “self-cleavage kobs at 2500 uM GlcN6P” value in data set [6] was 0.000654 ± 6.3e-05 s⁻¹. For the same variant, the “self-cleavage kobs at 10000 uM GlcN6P” value in data set [7] turned out to be 0.000966 ± 0.00011 s⁻¹.
For the variant G59U C71G, in data set [1], the kcat was determined as 1.13e-05 ± 1.7e-07 s⁻¹. Also, in data set [2], the KM came out at 817 ± 71 µM. In addition, the “self-cleavage kobs at 40 uM GlcN6P” value in data set [3] is less than 1e-05 s⁻¹. Moreover, in data set [4], the “self-cleavage kobs at 160 uM GlcN6P” value is less than 1e-05 s⁻¹.
On to A14G U56C, for which the kcat in data set [1] was found to be 0.021 ± 0.0052 s⁻¹. Further, the KM in data set [2] turned out to be 3490 ± 1200 µM. Also, the “self-cleavage kobs at 40 uM GlcN6P” value in data set [3] is 0.000291 ± 4.2e-05 s⁻¹. For the same variant, the “self-cleavage kobs at 160 uM GlcN6P” value in data set [4] worked out at 0.000647 ± 0.00018 s⁻¹. Besides, in data set [5], the “self-cleavage kobs at 640 uM GlcN6P” value is 0.0033 ± 0.00071 s⁻¹. Moreover, the “self-cleavage kobs at 2500 uM GlcN6P” value in data set [6] came out at 0.0088 ± 0.0011 s⁻¹. For the same variant, the “self-cleavage kobs at 10000 uM GlcN6P” value in data set [7] worked out at 0.0157 ± 0.0028 s⁻¹.
As for C10U U47C U56G C68U U69A, the kcat in data set [1] was less than 1e-05 s⁻¹. Also, in data set [2], the KM stood at 429 ± 190 µM. Besides, the “self-cleavage kobs at 640 uM GlcN6P” value in data set [5] is less than 1e-05 s⁻¹. Moreover, the “self-cleavage kobs at 10000 uM GlcN6P” value in data set [7] is less than 1e-05 s⁻¹.
